Measurements published in patent publication US20180305450A1 (AstraZeneca / MedImmune, published 2018).
Numbering of substitutions follows the chain as printed. Values belong to the binder of their own block, whether it stands above or below them.

Key:
[1] = target: T1, recombinant biotinylated human PAR2 extracellular domain (residues 1-75), N-terminal AviTag, C-terminal Flag … (human, UniProt P55085 26-75, biotin on the AviTag (enzymatic biotinylation)); test: HTRF competition with Par0067 IgG, scFv
T1 construct: also called Bio-human-PAR2 ECD; human PAR2 ECD; not shown: N-terminal AviTag (Avidity LLC); C-terminal Flag and poly Histidine tags
T1 sequence (P55085 26-75): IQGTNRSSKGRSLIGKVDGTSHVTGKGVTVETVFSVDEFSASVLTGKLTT
Description: (§1) 5 μl/well of the appropriate pH 4.44 nM Par0067 IgG solution was added to all wells of the relevant assay plate (pH 7.4 and pH 6.0).
(§2) Test scFv Preparation/Addition: [0172] a) For parallel single point HTS of crude un-purified bacterial lysate scFv samples at both pH 7.4 and pH 6.0 samples were first pre-diluted to 40% of their neat concentration using either pH 7.4 or pH 6.0 assay buffer as appropriate. Subsequently 5 μl of 40% pre-diluted sample was then transferred into the appropriate assay (pH 7.4 or pH 6.0) in order to give a final assay sample concentration of 10.0% (in the 20 μl final assay volume). The parent Par0067 scFv was included in all HTS experiments as a control as were specific pH dependent antibodies as those became available (for benchmarking). […] Duplicate 11 point 1:3 serial dilutions then were prepared on 384 well polypropylene Greiner plates in each of the two assay buffers (pH 7.4 & 6.0). 5 μl per well of each serial dilution was transferred from the relevant pH scFv dilution plate to the corresponding assay plate (pH 7.4 and pH 6.0). 5 μl of the appropriate pH assay buffer was added to the total and non-specific wells. The parent Par0067 purified scFv was included in all multipoint dose response IC₅₀ experiments as a control as were specific pH dependent purified scFv as those became available (for benchmarking).
(§3) For multipoint dose response curves % Specific Binding values were plotted versus test purified antibody concentration (scFv or IgG). IC₅₀ values were determined via a sigmoidal dose response inhibition variable slope curve fit (4 parameter logistic equation) using Graphpad Prism Software.

[2] = target: T1, recombinant biotinylated human PAR2 …; test: HTRF competition with Par0067 IgG, pH 6.0, scFv
Description: as §1, §2, §3

[3] = target: T1, recombinant biotinylated human PAR2 …; test: HTRF competition with Par0067 IgG, pH 7.4, scFv
Description: as §1, §2, §3

Fold IC50 (pH 6.0 v pH 7.4) [1]: 2.7 fold
Fold IC50 pH 7.4 (Variant v Par0067) [1]: 4.7 fold
IC50 [2]: 41.8 nM
IC50 [3]: 15.4 nM
B1: PaB670010 scFv (scFv, V domains shown)
VH: EVQLLESGGGLVQPGGSLRLSCAASGFTFSSYAMNWVRQAPGKGLEWVSTISYSGSLIHYADSVKGRFTISRDNSKNTLYLQMNSLRAEDTAVYYCARINNDPMDVWGQGTLVTVSS
VL: SIELTQPPSVSVSPGQTASITCSGDNLGKKYVQWYQQKPGQSPVLVIYDDSNRPSGIPERFSGSNSGNTATLTISGTQAMDEADYYCQTWDGNPTTGETNVFGGGTKLTVL
notes: purified scFv; also called ZZ1DRB-B08

Fold IC50 (pH 6.0 v pH 7.4) [1]: 7.4 fold
Fold IC50 pH 7.4 (Variant v Par0067) [1]: 3 fold
IC50 [2]: 72.5 nM
IC50 [3]: 9.8 nM
B2: PaB670045 scFv (scFv, V domains shown)
VH: B1 VH with H59S, N100H, N101H
VL: B1 VL
notes: purified scFv; also called ZZ1KX3-F01

Fold IC50 (pH 6.0 v pH 7.4) [1]: 9.6 fold
Fold IC50 pH 7.4 (Variant v Par0067) [1]: 10.1 fold
IC50 [2]: 319 nM
IC50 [3]: 33.3 nM
B3: PaB670078 scFv (scFv, V domains shown)
VH: B1 VH with H59S
VL: B1 VL with Q88H, T89H, D91H, N93H, T95H, T99H
notes: purified scFv; also called ZZ1OZJ-G03

Fold IC50 (pH 6.0 v pH 7.4) [1]: 11.2 fold
Fold IC50 pH 7.4 (Variant v Par0067) [1]: 16.8 fold
IC50 [2]: 620 nM
IC50 [3]: 55.4 nM
B4: PaB670077 scFv (scFv, V domains shown)
VH: B1 VH with H59S
VL: B1 VL with Q88H, T89H, D91H, N93H, P94H, V101H
notes: purified scFv; also called ZZ1OZJ-C11

Fold IC50 (pH 6.0 v pH 7.4) [1]: 5.9 fold
Fold IC50 pH 7.4 (Variant v Par0067) [1]: 30.8 fold
IC50 [2]: 603 nM
IC50 [3]: 102 nM
B5: PaB670075 scFv (scFv, V domains shown)
VH: B1 VH with H59S
VL: B1 VL with T89H, P94H, T95H, T96H, V101H
notes: purified scFv; also called ZZ1NHH-A05

Fold IC50 (pH 6.0 v pH 7.4) [1]: 9.6 fold
Fold IC50 pH 7.4 (Variant v Par0067) [1]: 4.4 fold
IC50 [2]: 139 nM
IC50 [3]: 14.5 nM
B6: PaB670048 scFv (scFv, V domains shown)
VH: B1 VH with H59S, N100H, N101H, V106H
VL: B1 VL
notes: purified scFv; also called ZZ1KX4-E11

Fold IC50 (pH 6.0 v pH 7.4) [1]: 3.1 fold
Fold IC50 pH 7.4 (Variant v Par0067) [1]: 7.7 fold
IC50 [2]: 77.9 nM
IC50 [3]: 25.4 nM
B7: PaB670082 scFv (scFv, V domains shown)
VH: B1 VH with Y53H, G55H, H59S, D62H, K65H
VL: B1 VL
notes: purified scFv; also called ZZ1OZA-D02

Fold IC50 (pH 6.0 v pH 7.4) [1]: 3.8 fold
Fold IC50 pH 7.4 (Variant v Par0067) [1]: 9 fold
IC50 [2]: 115 nM
IC50 [3]: 29.8 nM
B8: PaB670088 scFv (scFv, V domains shown)
VH: B1 VH with S56H, S63H, V64H, K65H
VL: B1 VL
notes: purified scFv; also called ZZ1ODR-B11

Fold IC50 (pH 6.0 v pH 7.4) [1]: 7.9 fold
Fold IC50 pH 7.4 (Variant v Par0067) [1]: 4.4 fold
IC50 [2]: 113 nM
IC50 [3]: 14.4 nM
B9: PaB670067 scFv (scFv, V domains shown)
VH: B1 VH with H59S
VL: B1 VL with Q88H, D91H, G92H, N93H, T96H, T99H
notes: purified scFv; also called ZZ1KXE-A05

Fold IC50 (pH 6.0 v pH 7.4) [1]: 3.8 fold
Fold IC50 pH 7.4 (Variant v Par0067) [1]: 6.8 fold
IC50 [2]: 85.5 nM
IC50 [3]: 22.6 nM
B10: PaB670090 scFv (scFv, V domains shown)
VH: B1 VH with S54H, S56H, L57H, H59S, Y60H, S63H, G66H
VL: B1 VL
notes: purified scFv; also called ZZ1ODR-F02

Fold IC50 (pH 6.0 v pH 7.4) [1]: 9.5 fold
Fold IC50 pH 7.4 (Variant v Par0067) [1]: 5 fold
IC50 [2]: 158 nM
IC50 [3]: 16.6 nM
B11: PaB670080 scFv (scFv, V domains shown)
VH: B1 VH with H59S
VL: B1 VL with N93H, P94H, T95H, V101H
notes: purified scFv

Fold IC50 (pH 6.0 v pH 7.4) [1]: 4.3 fold
Fold IC50 pH 7.4 (Variant v Par0067) [1]: 20.3 fold
IC50 [2]: 290 nM
IC50 [3]: 67.1 nM
B12: PaB670064 scFv (scFv, V domains shown)
VH: B1 VH with H59S
VL: B1 VL with Q88H, D91H, G92H, T95H, V101H
notes: purified scFv; also called ZZ1KX6-B09

Fold IC50 (pH 6.0 v pH 7.4) [1]: 5.9 fold
Fold IC50 pH 7.4 (Variant v Par0067) [1]: 21.8 fold
IC50 [2]: 428 nM
IC50 [3]: 72.1 nM
B13: PaB670073 scFv (scFv, V domains shown)
VH: B1 VH with H59S
VL: B1 VL with T89H, D91H, N93H, T95H, T96H, T99H
notes: purified scFv; also called ZZ1L3F-H03
